Results: paper PMC2709225 (Nature structural & molecular biology, 2009)

Target: the molecule itself
Assay: SEC-MALS

B1: stabilised full-length ectodomain of human hedgehog-interacting protein HIP (eHIPS) (domain or fragment, UniProt Q96QV1-1 56-670, looked up)
chain: MSQLELLSGGEMLCGGFYPRLSCCLRSDSPGLGRLENKIFSVTNNTECGKLLEEIKCALCSPHSQSLFHSPEREVLERDLVLPLLCKDYCKEFFYTCRGHIPGFLQTTADEFCFYYARKDGGLCFPDFPRKQVAGPASNYLDQMEEYDKVEEISAAHKHNCFCIQEVVSGLRQPVGALHSGDGSQRLFILEKEGYVKILTPEGEIFKEPYLDIHKLVQSGIKGGDERGLLSLAFHPNYKKNGKLYVSYTTNQERWAIGPHDHILRVVEYTVSRKNPHQVDLRTARVFLEVAELHRKHLGGQLLFGPDGFLYIILGDGMITLDDMEEMDGLSDFTGSVLRLDVDTDMCNVPYSIPRSNPHFNSTNQPPEVFAHGLHDPGRCAVDRHPTDININLTILCSDSNGKNRSSARILQIIKGKDYESEPSLLEFKPFSNGPLVGGFVYRGCQSERLYGSYVFGDRNGNFLTLQQSPVTKQWQEKPLCLGTSGSCRGYFSGHILGFGEDELGEVYILSSSKSMTQTHNGKLYKIVDPKRPLMPEECRATVQPAQTLTSECSRLCRNGYCTPTGKCCCSPGWEGDFCRTAKCEPACRHGGVCVRPNKCLCKKGYLGPQCEQVD
modifications: enzymatically biotinylated within an engineered C-terminal tag (form attached to the SPR surface); fully glycosylated for MALS
B1 was tested, and the “stoichiometry N” value was 2.
